# According to paper PMC3667669 (2014):
# Where no end group is shown, it is not given here.
# Target: Cdc42 (Homo sapiens, UniProt P60953)
# Assay: fluorescence intensity titration
# Chain of Cdc42 (P60953 1-188): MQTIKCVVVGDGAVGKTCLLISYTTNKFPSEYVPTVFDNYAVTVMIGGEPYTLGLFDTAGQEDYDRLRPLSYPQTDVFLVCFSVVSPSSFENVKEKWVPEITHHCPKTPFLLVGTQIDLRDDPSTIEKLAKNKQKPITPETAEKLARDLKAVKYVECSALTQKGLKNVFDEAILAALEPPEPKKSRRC
row,Binder,Kd [nM]
1,"WASP CBD (Cdc42 binding domain) (protein, also: MBP fusion, mero87 dye label, site not given here) KKKISKADIGAPSGFKHVSHVGWDPQNGFDVNNLDPDLRSLFSRAGISEAQLTDAETSK",186
2,"WASP CBD (Cdc42 binding domain) (protein, also: MBP fusion, mero61 dye label, site not given here) KKKISKADIGAPSGFKHVSHVGWDPQNGFDVNNLDPDLRSLFSRAGISEAQLTDAETSK",144
